The source of these data is PMC4528106.

Test [1] concerns the target HKU4-CoV 3CLpro (bat coronavirus HKU4).
Test [2] has as its target MERS-CoV 3CLpro (nsp5 protease), without any N- or C-terminal extensions (MERS-CoV).
For test [3] the target is unchanged. Kind of test: AUC.
Test [4] addresses SARS-CoV 3CLpro with authentic N and C termini (SARS-CoV).

Where two headings read alike, the source gives them in different places.

Turning to HKU4-CoV 3CLpro (enzyme), the Kd in test [1] was determined as 0.1 µM.

With “MERS-CoV 3CLpro (nsp5 protease), without any N- or C-terminal extensions (enzyme)”, the Kd in test [2] is 7.8 µM. In test [3], this substance showed a Kd of 52 µM, a koff of 0.0001 s⁻¹ and a stoichiometry N of 2.

“SARS-CoV 3CLpro with authentic N and C termini (enzyme)” had a Kd in test [4] of 0.06 µM.

For orientation: Kd means the free concentration of one partner at which half of the binding sites on the other are occupied at equilibrium, for simple one-to-one binding. Read a low Kd as higher affinity. Usually koff stands for the rate constant with which the complex falls apart. High values mean a short-lived complex, low ones a long-lived complex. What is called stoichiometry N is the number of molecules, sites or subunits per partner or assembly.
